Test results reported in US6159731, “Daxx, a Fas-binding protein that activates JNK and apoptosis” (Massachusetts Institute of Technology, dated 2000).

B1: in vitro translated 35S-labeled full length murine Daxx (other)
chain: MATDDSIIVLDDDDEDEAAAQPGPSNLPPNPASTGPGPGLSQQATGLSEPRVDGGSSNSGSRKCYKLDNEKLFEEFLELCKTETSDHPEVVPFLHKLQQRAQSVFLASAEFCNILSRVLARSRKRPAKIYVYINELCTVLKAHSIKKKLNLAPAASTTSEASGPNPPTEPPSDLTNTENTASEASRTRGSRRQIQRLEQLLALYVAEIRRLQEKELDLSELDDPDSSYLQEARLKRKLIRLFGRLCELKDCSSLTGRVIEQRIPYRGTRYPEVNRRIERLINKPGLDTFPDYGDVLRAVEKAATRHSLGLPRQQLQLLAQDAFRDVGVRLQERRHLDLIYNFGCHLTDDYRPGVDPALSDPTLARRLRENRTLAMNRLDEVISKYAMMQDKTEEGERQKRRARLLGTAPQPSDPPQASSESGEGPSGMASQECPTTSKAETDDDDDDDDDDDEDNEESEEEEEEEEEEKEATEDEDEDLEQLQEDQGGDEEEEGGDNEGNESPTSPSDFFHRRNSEPAEGLRTPEGQQKRGLTETPASPPGASLDPPSTDAESSGEQLLEPLLGDESPVSQLAELEMEALPEERDISSPRKKSEDSLPTILENGAAVVTSTSVNGRVSSHTWRDASPPSKRFRKEKKQLGSGLLGNSYIKEPMAQQDSGQNTSVQPMPSPPLASVASVADSSTRVDSPSHELVTSSLCSPSPSLLLQTPQAQSLRQCIYKTSVATQCDPEEIIVLSDSD
modifications: 35S-labeled (in vitro translated)

Legend:
[1] = target: full length murine Fas expressed in cells (murine) (UniProt P25446)
[2] = target: glutathione S-transferase (GST) (Schistosoma japonicum (Blood fluke), UniProt P08515 = GST); assay: GST pull-down of in vitro translated 35S-Daxx
Description: In the two-hybrid system, the Daxx C-terminal region interacted strongly with Fas, confirming that Daxx is the functional homolog of clone A21 (FIG. 1B). We then tested the binding of full length murine Daxx protein in vitro and in mammalian cells. In vitro translated, ^35S-labeled Daxx bound to immobilized glutathione S-transferase (GST) fusion proteins of Fas death domain and TNFR1 intracellular tail but not to immobilized GST or GST-CD40 intracellular tail or GST-Fas lpr^cg death domain (FIG. 3A). Positions of MW standards (in kDa) are shown at left. Coomassie stained GST fusion proteins from the same gel were aligned to show protein levels. Daxx migrated with an apparent molecular weight of approximately 120 kDa on SDS-PAGE; this slower than expected migration may reflect the high content of acidic residues in Daxx. In the GST pull-down assay, ^35S-Daxx bound to GST-FasDD but only very weakly to GST-TNFR1. This discrepancy with the two-hybrid result (FIG. 1) may be due to the nonlinear readout of the two-hybrid system. Deletion of 162 amino acids from the C-terminus of Daxx abrogated binding to GST-FasDD while the C-terminal 112 amino acids (DaxxC) was sufficient to bind GST-FasDD (FIG. 3B), consistent with the two-hybrid results. Daxx(-162) was missing C-terminal 162 aa of Daxx; DaxxC corresponded to aa 628-739. […]

Row | Molecule | specific apoptosis of L929 cells stably overexpressing Daxx (L/Daxx) after Fas transfection [1] [fold] | binding result [2]
1 | HA-Daxx (hemagglutinin-tagged full length murine Daxx) | 3 | 
2 | B1 |  | no binding
